From patent US20230302148A1, “PHARMACEUTICAL COMPOSITION COMPRISING LONG-ACTING CONJUGATE OF TRIPLE GLUCAGON/GLP-1/GIP RECEPTOR AGONIST” (HANMI PHARM. CO., LTD., priority 2020, published 2023)
Bridges are numbered along the chain shown (N, C = ends). Where no end group is shown, it is not given here. [ ]: non-standard residue; d: D form. Aib = CC(C)(N)C(=O)O

T1: human GIP receptor (human, UniProt P48546 22-466)
T1 sequence (looked up): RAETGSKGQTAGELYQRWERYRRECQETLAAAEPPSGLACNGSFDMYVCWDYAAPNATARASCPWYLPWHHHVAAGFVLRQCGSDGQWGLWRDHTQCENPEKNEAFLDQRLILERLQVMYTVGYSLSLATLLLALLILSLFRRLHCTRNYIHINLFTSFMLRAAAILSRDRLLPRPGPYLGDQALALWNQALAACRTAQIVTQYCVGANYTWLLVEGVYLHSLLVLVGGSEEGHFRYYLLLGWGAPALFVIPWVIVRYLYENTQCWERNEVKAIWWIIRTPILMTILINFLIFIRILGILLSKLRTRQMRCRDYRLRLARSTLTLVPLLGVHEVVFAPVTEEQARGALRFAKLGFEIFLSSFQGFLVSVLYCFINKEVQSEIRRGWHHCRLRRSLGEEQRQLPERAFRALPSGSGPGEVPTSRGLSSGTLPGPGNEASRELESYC


System: not listed separately
Experiment: FIGURE 13
Description: Table printed on a drawing sheet, FIGURE 13
W1 means Week 1 and W12 means Week 12.
First reader's note: The first row gives the substance together with its dose (mg/kg), and each result cell holds the value with its ± deviation in the same cell.

For “LONG-ACTING CONJUGATE OF SEQ ID NO: 42 0.01 mg/kg (Y[Aib]QGTFTSDYSKYLDEKRAKEFVQWLLDHHPSSGQPPPSC; lactam 16-20; not fully specified (residue 40); also: long-acting carrier conjugate)”, the “Cmax” value was 31.22 ± 13.47 ng/mL.

Point of comparison: “LONG-ACTING CONJUGATE OF SEQ ID NO: 42 0.02 mg/kg (Y[Aib]QGTFTSDYSKYLDEKRAKEFVQWLLDHHPSSGQPPPSC; lactam 16-20; not fully specified (residue 40); also: long-acting carrier conjugate)”, “Tmax” value 48.00 ± 22.22 h. Against it:
- LONG-ACTING CONJUGATE OF SEQ ID NO: 42 0.01 mg/kg (Y[Aib]QGTFTSDYSKYLDEKRAKEFVQWLLDHHPSSGQPPPSC; lactam 16-20; not fully specified (residue 40); also: long-acting carrier conjugate) — the same, 48.00 ± 12.00 h

In the case of “LONG-ACTING CONJUGATE OF SEQ ID NO: 42 0.02 mg/kg (Y[Aib]QGTFTSDYSKYLDEKRAKEFVQWLLDHHPSSGQPPPSC; lactam 16-20; not fully specified (residue 40); also: long-acting carrier conjugate)”, the “AUC0-168h” value is reported as 11770.3 ± 7192.4 ng·h/mL.

System: not listed separately
Experiment: FIGURE 5
Description: Table printed on a drawing sheet, FIGURE 5

With “LONG-ACTING CONJUGATE OF SEQ ID NO: 42 0.01 mg/kg (N=5) (Y[Aib]QGTFTSDYSKYLDEKRAKEFVQWLLDHHPSSGQPPPSC; lactam 16-20; not fully specified (residue 40); also: long-acting carrier conjugate)” the “Dose-normalized Cmax (ng/mL/mg)” value was 30.73 (13.34) ng/mL/mg.

In the case of “LONG-ACTING CONJUGATE OF SEQ ID NO: 42 0.01 mg/kg (N=5) (Y[Aib]QGTFTSDYSKYLDEKRAKEFVQWLLDHHPSSGQPPPSC; lactam 16-20; not fully specified (residue 40); also: long-acting carrier conjugate)”, the “Tmax (hr)” value is reported as 31.20 (10.733) hr.

Molecular target: T1, human GIP receptor
Experiment: cell-based or functional assay

Point of comparison: H[Aib]QGTFTSDYSKYLDEKACKDFVQWLLDGGPSSGAPPPS (bridge 16-20) [triple agonist of SEQ ID NO: 32], “In vitro activity relative to native peptide (%) vs. GIP” value 8.8%. Against it:
- H[Aib]QGTFTSDYSKYLDERACQDFVQWLLDQGGPSSGAPPPS [triple agonist of SEQ ID NO: 27] — lower, 0.9%
- H[Aib]QGTFTSDCSKYLDERAAQDFVQWLLDGGPSSGAPPPS [triple agonist of SEQ ID NO: 25] — lower, < 0.1%
- H[Aib]QGTFTSDYSKYLDEKRAQEFVCWLLAQKGKKNDWKHNIT [triple agonist of SEQ ID NO: 28] — lower, < 0.1%
- H[Aib]QGTFTSDCSKYLDSRAAQDFVQWLLDGGPSSGAPPPS [triple agonist of SEQ ID NO: 26] — lower, < 0.1%
- H[Aib]QGTFTSDYSIAMDEIHQKDFVNWLLAQKC (bridge 16-20) [triple agonist of SEQ ID NO: 33] — higher, 10.4%
- H[Aib]QGTFTSDYSKYLDEKACKEFVQWLLAQ (bridge 16-20) [triple agonist of SEQ ID NO: 31] — lower, 2.4%
- H[Aib]QGTFTSDYSKYLDEKAQKEFVQWLLDTC (bridge 16-20) [triple agonist of SEQ ID NO: 30] — lower, 0.8%
- H[Aib]QGTFTSDYSKYLDEKAAKEFVQWLLNTC (bridge 16-20) [triple agonist of SEQ ID NO: 29] — lower, < 0.1%
- Y[Aib]QGTFTSDYSKYLDECRAKEFVQWLKNGGPSSGAPPPS (bridge 16-20) [triple agonist of SEQ ID NO: 24] — lower, < 0.1%
- H[Aib]QGTFTSDVSSYLLGQAAKQFIAWLVKGGGPSSGAPPPSC [triple agonist of SEQ ID NO: 3] — lower, < 0.1%

Molecular target: human GCG receptor (human, UniProt P47871 26-477)
Sequence (P47871 26-477): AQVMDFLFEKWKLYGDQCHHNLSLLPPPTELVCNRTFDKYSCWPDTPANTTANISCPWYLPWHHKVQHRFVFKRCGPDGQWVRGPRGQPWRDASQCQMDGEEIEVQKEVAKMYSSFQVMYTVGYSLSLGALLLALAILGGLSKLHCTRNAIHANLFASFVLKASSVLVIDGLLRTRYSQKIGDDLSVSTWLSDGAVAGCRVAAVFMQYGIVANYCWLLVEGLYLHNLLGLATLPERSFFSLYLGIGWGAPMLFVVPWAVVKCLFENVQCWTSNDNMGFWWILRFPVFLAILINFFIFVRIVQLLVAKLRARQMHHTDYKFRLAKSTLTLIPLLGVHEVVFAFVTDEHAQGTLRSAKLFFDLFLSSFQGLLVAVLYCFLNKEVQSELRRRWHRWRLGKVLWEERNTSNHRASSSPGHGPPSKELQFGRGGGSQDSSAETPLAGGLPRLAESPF
Experiment: cell-based or functional assay

Point of comparison: H[Aib]QGTFTSDYSKYLDEKAAKEFVQWLLNTC (bridge 16-20) [triple agonist of SEQ ID NO: 29], “In vitro activity relative to native peptide (%) vs. Glucagon” value 6%. Against it:
- H[Aib]QGTFTSDYSKYLDEKACKDFVQWLLDGGPSSGAPPPS (bridge 16-20) [triple agonist of SEQ ID NO: 32] — lower, 1.7%
- H[Aib]QGTFTSDYSKYLDERACQDFVQWLLDQGGPSSGAPPPS [triple agonist of SEQ ID NO: 27] — lower, 0.8%
- H[Aib]QGTFTSDCSKYLDERAAQDFVQWLLDGGPSSGAPPPS [triple agonist of SEQ ID NO: 25] — lower, 0.1%
- H[Aib]QGTFTSDYSKYLDEKRAQEFVCWLLAQKGKKNDWKHNIT [triple agonist of SEQ ID NO: 28] — lower, 1.6%
- H[Aib]QGTFTSDCSKYLDSRAAQDFVQWLLDGGPSSGAPPPS [triple agonist of SEQ ID NO: 26] — lower, 0.2%
- H[Aib]QGTFTSDYSIAMDEIHQKDFVNWLLAQKC (bridge 16-20) [triple agonist of SEQ ID NO: 33] — lower, < 0.1%
- H[Aib]QGTFTSDYSKYLDEKACKEFVQWLLAQ (bridge 16-20) [triple agonist of SEQ ID NO: 31] — lower, 2.2%
- H[Aib]QGTFTSDYSKYLDEKAQKEFVQWLLDTC (bridge 16-20) [triple agonist of SEQ ID NO: 30] — lower, 0.7%
- Y[Aib]QGTFTSDYSKYLDECRAKEFVQWLKNGGPSSGAPPPS (bridge 16-20) [triple agonist of SEQ ID NO: 24] — higher, 9.3%
- H[Aib]QGTFTSDVSSYLLGQAAKQFIAWLVKGGGPSSGAPPPSC [triple agonist of SEQ ID NO: 3] — lower, < 0.1%

Molecular target: human GLP-1 receptor (human, UniProt P43220 24-463)
Experiment: cell-based or functional assay

Point of comparison: H[Aib]QGTFTSDYSKYLDEKACKDFVQWLLDGGPSSGAPPPS (bridge 16-20) [triple agonist of SEQ ID NO: 32], “In vitro activity relative to native peptide (%) vs. GLP-1” value 151%. Against it:
- H[Aib]QGTFTSDYSKYLDERACQDFVQWLLDQGGPSSGAPPPS [triple agonist of SEQ ID NO: 27] — lower, 83.1%
- H[Aib]QGTFTSDCSKYLDERAAQDFVQWLLDGGPSSGAPPPS [triple agonist of SEQ ID NO: 25] — lower, 82.6%
- H[Aib]QGTFTSDYSKYLDEKRAQEFVCWLLAQKGKKNDWKHNIT [triple agonist of SEQ ID NO: 28] — lower, 17.2%
- H[Aib]QGTFTSDCSKYLDSRAAQDFVQWLLDGGPSSGAPPPS [triple agonist of SEQ ID NO: 26] — lower, 64.5%
- H[Aib]QGTFTSDYSIAMDEIHQKDFVNWLLAQKC (bridge 16-20) [triple agonist of SEQ ID NO: 33] — lower, 24.5%
- H[Aib]QGTFTSDYSKYLDEKACKEFVQWLLAQ (bridge 16-20) [triple agonist of SEQ ID NO: 31] — lower, 135%
- H[Aib]QGTFTSDYSKYLDEKAQKEFVQWLLDTC (bridge 16-20) [triple agonist of SEQ ID NO: 30] — lower, 142%
- H[Aib]QGTFTSDYSKYLDEKAAKEFVQWLLNTC (bridge 16-20) [triple agonist of SEQ ID NO: 29] — lower, 38.5%
- Y[Aib]QGTFTSDYSKYLDECRAKEFVQWLKNGGPSSGAPPPS (bridge 16-20) [triple agonist of SEQ ID NO: 24] — lower, 41.2%
- H[Aib]QGTFTSDVSSYLLGQAAKQFIAWLVKGGGPSSGAPPPSC [triple agonist of SEQ ID NO: 3] — lower, 1.8%
